Test: yeast display, Sf9 membrane polyspecificity reagent, FACS + sequencing; frameworks hold sequencing errors
In short: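 Polyreactivity labels are assigned by the sorting gate from which each nanobody was recovered. The gates were low and high (top ~1%), set on anti-HA fluorescence for expression and streptavidin fluorescence for reagent binding. Before sorting, galactose-induced (36–48 hours) yeast display cells were stained for 1 hour at 4 °C with 10% biotinylated, detergent-solubilized Sf9 membrane reagent.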

Row | Sequence | polyreactivity (PSR sort gate)
1 | QVQLVESGGGLVQAGGSLRLSCAASGFTFVRYVMGWYRQAPGKERELVAAISRSGGSTHYADSVKGRFTISRDNAKNTVYLQMNSLKPEDTAVYYCNAYGYRHRGNGYWGQGTQVTVSS | high polyreactivity
2 | QVQLVESGGGLVQAGGSLRLSCAASGSTFRRYAMGWYRQAPGKERELVASISRSGGSTYYADSVKGRFTISRDNAKNTVYLQMNSLKPEDTAVYYCAKKPYKSAYDYSSAYDYWGQGTQVTVSS | high polyreactivity
3 | QVQLVESGGGLVQAGGSLRLSCAASGRTFPGNAMGWYRQAPGKERELVAAITSSGSTNYADSVKGRFTISRDNAKNTVYLQMNSLKPEDTAVYYCNAAWFYVYGVWILDWGQGTQVTVSS | low polyreactivity
4 | QVQLVESGGGLVQAGGSLRLSCAASGNIFAINAMGWYRQPPGKERELVAAISSRGGSTTYADSVKGRFTISRDIAKNTVYLQMNSLKPEDTAVYDCAADFVRDRFFRYDYWGQGTQVTVSS | high polyreactivity
5 | QVQLVESGGGLVQAGGSLRLSCAASGIIFQYYAMGWYRPAPGKEREWVAAITSSGDRTYYADSVKGRFTISRDNAKNNVILQMNSLNPEDTAVYYCNAVYYLDYHYGYEFGYWGQGTQVTVSS | high polyreactivity
6 | QVQLVESGGGLVKAGGSLRLSCAASGSTFQWYAMGWYRQAPGKERELVAAINKSGGTTYYADSVKGRFTISRDNAKNSVYLQMNSLKPEDTAVYYCATDNPVVYQPGNMDYWGQGTQVTVSS | low polyreactivity
7 | QVQLVESGGGLVQAGGSLRLSCAASGSIFGYNAMGWYRQAPGKERELVAAISLSGSSTYYADSVKGRFTISRDNAKNTVYLQMNSLKPEDTAVYYCAALYQWRRVFYTSYGYWGQGTQVTGSS | high polyreactivity
8 | QVQLVESGGGLVQAGGSLRLSCAASGRILGYYSMGWYRQAPGKERELVAGITSGGSTYYADSVKGRFTISRDNAKNTVYLQMNSLKPEDTAVYYCATVHGVYQRRYYFWGQGTQVTVSS | high polyreactivity
9 | QVQLVESGGGLVQAGGSLRLSCAASGRTFGQNAMGWYRQAPGKERELVATITLNGGNTYYADSVKGRFTISRDNAKNTVYLQMNSLKPEDTAVYYCNAVPSWYRYRPPRFDYWGQGTQVTVSS | low polyreactivity
10 | QVQLVESGVGLVQAGGSLRLSCSASGSIFDYYAMGWYRQAHGKERELVAAISWRGGRTYYADSVKGRFTISRDNAKNTVYLQMNSLNPVDTAVYYCNTQEPYYESDYWGLGTQVTVSS | high polyreactivity
11 | QVQLVESGGGLVQAGGSLRLSCAASGSILFGNAMGWYRQAPGKEMELVAAITVSGGSTYYADSVKGRFTISRDNAKNTVYLQMNSLKPEDTAVYYCAAVSLFRDSQFDYWGQGTQVTVSS | low polyreactivity
12 | QVQLVESPGGLVQAGGSLRLSCAASGSIFGSYAMGWYRQEPGKEREFVAVITSASTNYADSVKGRFTISRDNAKNTVNLQLNSLKPEDTAVYYCNKRGTRIRRTNKSHGVDYWGQGTQVTVSS | low polyreactivity
13 | QVQLVESGGGLVQAGGSLRLSCAASGFIFTRNVMGWYRQAPGKERELVAGITYTSGSTYYADSVKGRFTISRDNAKNTVYLQMNSLKPEDTAVYYCAAEITRHYVFGDDYWGQGTQVTVSS | low polyreactivity
14 | QVQLVESGGGLVQAGGSLRLSCAASGFTFRYYAMGWYRQAPGKERELVAAISYRGGRTYYADSVKGRFTISRDNAKNTVYLQMNSLKPEDTAVYYCAVDYTLADVIYDYWGQGTQVTVSS | high polyreactivity
15 | QVQLVESGGGLVQAGGSLRLSCAASGFIFYKNAMGWYRQAPGKERQLVAAINFSTGRTYYADSVKGRFTISRDNAKNTVYLQMNSLKPEDTAVYYCASKSANPRKYYYWGQGTQVTVSS | high polyreactivity
16 | QVQLVESGGGLVQAGGSLRLSCAASGRTFAYNAMGWYRQAPGKERELVAAITRRGGSTYYADSVKGRFTISRDNAKITVYLQMNSLKPEDTAVYYCDARWVTTVQGDGRYDYWGQGTQVTVSS | low polyreactivity
17 | QVHLVESGGGLVQAGGSLRLSCAASGSIFRYYAMGCYRQAPGKERELVAGITWSSGSTYYADYVKGRFTISRDKAKNTVYFQMNSLKPEDTAVSYCIADPANPFVTEFEYWGQGNQVTVSS | high polyreactivity
18 | QVQLVESGGGLVQAGGSLRISCAASGITFRYYAMGWSIQAPGKERELVAAITCNGGGTYADSVKGRFTISRDNAKYTVYLEMNSLKPEDTAVYSCSADYGRRWGYDYWGQGTQVTVSS | low polyreactivity
19 | QVQLVESGGGLVQAGGSLRLSCAASGFTFYYYAMGWYRQAPGKERELVAAIDTGGSTNYADSVKGRFTISRDNAKNTVYLQMNSLKPEDTAVYYCNADTPDHYGHYDYWGQGTQVTVSS | low polyreactivity
20 | QVQLVESGGGLVQAGGSLRLSCAASGSILYPTAMGWYTQAPGKEREFVAGITSSGSTYYADSVKGRFTISRDNAKNTVDDQMNSLKPDDTAVYYCATSVYRTYGNSVHRMNYWGQGTQVTVSS | high polyreactivity
21 | QVQLVESGGGLVQAGGSLRLSCAASGFTFTIYAMGWYRQAPGKERELVATISGRAGRTYYADSVKGRFTISRDNAKNTVYLQITSRKPEDSAVYYCNAGQWRYPGLYYYWGHGTQVTVSS | high polyreactivity
22 | QVQLVESVGGLFQAGGSLRLSCAASGSIFAYNTMGWYRQAPGKEREFVAAISWRGGSTYYADSVKGHFTISGDNAKNTFYLQMNSLKPEDTAVYYCNARYRNTFYSRRYDYWGQGTQVTVSS | low polyreactivity

Row | Sequence | polyreactivity (PSR sort gate)
23 | QVQLVESGGGLVHAGGSLRLSCAASGITFSRNTMGWYRQAPGKERELVAAITLRGGGRTYYADSVKGRFTISRDNAKNTVYLQMISLKPEDTAVYYCAARYLVTFGHQQRYFYWGQGTHVTVSS | high polyreactivity
24 | QVQLVESGGGLVQAGGSLRLSCAASGFTFYLYTMGWYRQAPGKERELVATITSDGGTNYADSVKGRFTISRDNAKYTVYLQMNSLKPEDTAVYYCNAASRRGSRKQAKYDYWGQGTQVTVSS | low polyreactivity
25 | QVQLVESGGGLVQAGGSLRLSCAASGSTLYRNAMGWYRQAPGKERELVAAISSSGGTTFYADSVKGRFTISGDNAKNTVYLQMNCLKPEDSAVYYCIRTARKLRTVHSSVVGLDYWGQGTQVTVSS | low polyreactivity
26 | QFQLVESGGGLVQAGGSLRLRCAASGQTFRYYAMGWYRQAPGKERELVAAITRRGSTYYADSVKGRFTISRDNAKNTVNLQINSLKPEDTAVYYCATVTGFHSSPLRDLDYWGQGTQVTVSS | high polyreactivity
27 | QVQLVESGGGLVQAGGSLRLSCAASGNTFSPYAMGWYRQAPGKERELVAAITFRGGSTYYADSVKGRFTISRDNAKNTVYLQMNSLKPEDTAVYYCNAERGGWSGYFGYDYWGQGTQVTVSS | low polyreactivity
28 | QVQLVESGGGLVQAGGSLRLSCAASGIMFTSNTMGSYRQAPGKEREFVASINWNGSSTYADSVKGRFTISRDNAKNTDYLQMNSLKPEDTAVYYCNADYNRNSVQFSLYDYWGQGTQVTVSS | low polyreactivity
29 | QVQLVESGGGLVQAGGSLRLSCAASGRTSGNNAMGWYRQAPGKERELVAAITRGGRTYYADSVKGRFTISRDNAKNTVYLQLNSLKPEDTAVYYCAARRYFYLFGYYYWGQGTQVTVSS | high polyreactivity
30 | QVQLVESGGGLVQAGGSLRLSCAASGRIFRGYAMGWYRQAPGKERELVAAISRGGNTDYADSVKGRFTISRDNAKNTVYLQMNSLKPEDTAVYYCAVGYVSYRKFYLYNSWGQGTQVTVSS | high polyreactivity
31 | QVQLVESGGGLVQAGGSLRLSCSASGSTFWYYAMGWYRKAPGKERELVAAITRGASTNYADSVKGRFTISRDNAKNTVYLQMISLIPEDTAVYYCAAGPARWKGYYWGQGTQVTVSS | high polyreactivity
32 | QVQLVESGGGLVQAGGILRLSCAASGSIFPNYAMGWYRQAPGKEREFVAAISSSGGSTYYADYVKGRFTISRENAKNTVYLQMNSLKPDDTAVYYCAAAYVGYYYSRGFDYWGQGTQVTVSS | high polyreactivity
33 | QVQLVESGGGLVQAGGSLRLSCAASAYAMGWYRQAPGKERELVAAITVSGGSTHYADSVKGRFTISRDNAKNTVYLQMNSLKPEDTAVYYCNARYDVWYYYWGQGTQVTVSS | low polyreactivity
34 | QVQLVESGGGLVQAGGSLRLSCAASGRIFPGYAMGWYRQAPGKERELVAAISWIGGDTYYADSVKGRFTISRDNAKNTVYLQMNSLKPEDTAVYYCAARYGRHRVSWYATWRYGYWGQGTQVTVSS | low polyreactivity
35 | QVQLVESGGGLVQAGGSLRLSCAASGSIFDYNSMGMYIQAPGKERELVAAISSGGTTYYADSVKGRFTISLDNAKNTVYLHIKSLKPEDTDVYYCAARRAGWWGFYYWGQCTQVTVSS | high polyreactivity
36 | QVQLVESGGGLEQAGGSLRLSCAASGLIFRGYVMGWYRPAPGKERELVAAISRRGVNTYYADSVKGRFTISRDNSKNTVYLQMNSLKPEDTAVYYCAAETHVGWPAKFDYWGQGTQVTVSS | high polyreactivity
37 | QVQLVESGVGLVQAGGSLRLSCAASGLILANYAMGWYRQAPGKERELVAAISSSGGSTYYADSVKGRFTISRDNAKNTVYLQMNSLKPEDTAVYYCAAYPLYRRRWTGDYWGQGTQVTVSS | high polyreactivity
38 | QVQLVESGGGLVQAGGTLRLSCAASGSTYDTYTMGGYSQAPGKERVLVAAITSSGDSTYYADSVKGRSTISRDNAKNTVYLQMNSLKPEDTAVYYCAAEVTVWLYYLYVGEYEYWGQGTQVTVSS | high polyreactivity
39 | QVQLVESGGGLVQAGGSLRLSCAASGSTFGVNAMGWSRQAPGKERELVAVITRSGGSTYYADSVKGRFTISRDNAKNTVFLQMNSLIPEDTAVYYCAKSGVVDWGQGTQVTVSS | low polyreactivity
40 | QVQLVESGGGLVQAGGSLRLSCAASGIIFGHYAMGWYRQAPGKERELVARITYSGTRTYYADSVKGRFTISRDNAKNTVYLQMNSLKPEDTAVYYCAAGYAYPRWVTAGNYWGQGTQVTVSS | high polyreactivity
41 | QVQLVESCGGIVQAGGSLRLSCAASGSTFRVNAMGWYRHSPGKERELVAAIRKSGGSTYADSVKGRFTISRDNAKNTFNLQMNSLKPEDTGVYYCNADATAWLGLADNYWVQGTQVTVSS | low polyreactivity
42 | QVQLVESGGGLVQAGGRLRLSCAACGIIFLLYAMGWYRQAPGKERELVAAITNGGRTNYADSVQGRFTISRDNAKNTVYLQMNSRKPEDTALYYCNAVLSVPDYTLFDYWGQGTQVTVSS | low polyreactivity
43 | QVQLVESGGGLVQAGGSLRLSCAASGRIFYNYAMGWYRQAPGKERELVAAITRRAGRTYYADSVKGRFTISRDNAKNTVYLQMNSLKPEDTAVFYCAKDEPGSSRVLYDYWGQVTQVTVSS | low polyreactivity

— the nanobody polyreactivity screen of Harvey et al. (2022)
